From PMC4157330, “Molecular assembly of the period-cryptochrome circadian transcriptional repressor complex” (eLife, 2014)

Legend:
[1] = target: T1, mouse CRY2 (amino acids 1–512) (mouse, UniProt Q9R194 1-512); assay: crystal structure; complex of purified CRY2 (1–512) and PER2 (1095–1215); crystals grown at 4°C, hanging drop, 100 mM HEPES pH 7.5, 200 mM NaCl, 15% PEG 3350; 2.8 Å; details: both partners purified
T1 construct: Cryptochrome 2 (CRY2), mouse, residues 1-512, photolyase-homology region (PHR); also called CRY2-PHR; mCRY2
T1 sequence (looked up): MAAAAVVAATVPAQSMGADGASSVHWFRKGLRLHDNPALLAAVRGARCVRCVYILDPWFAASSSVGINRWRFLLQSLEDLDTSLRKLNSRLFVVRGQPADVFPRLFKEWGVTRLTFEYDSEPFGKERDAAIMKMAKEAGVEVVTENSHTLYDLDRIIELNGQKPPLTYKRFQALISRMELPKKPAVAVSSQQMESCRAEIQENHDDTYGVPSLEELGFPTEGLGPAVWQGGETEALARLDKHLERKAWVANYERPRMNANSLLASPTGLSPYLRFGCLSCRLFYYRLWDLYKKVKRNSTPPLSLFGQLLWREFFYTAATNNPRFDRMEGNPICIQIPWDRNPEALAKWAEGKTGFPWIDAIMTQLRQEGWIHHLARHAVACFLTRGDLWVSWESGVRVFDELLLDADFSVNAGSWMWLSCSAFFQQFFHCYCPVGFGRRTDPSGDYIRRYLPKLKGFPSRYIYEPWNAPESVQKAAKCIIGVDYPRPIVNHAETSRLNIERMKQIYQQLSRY

[2] = target: T1, mouse CRY2 (amino acids 1–512); assay: pull-down; GST-PER2 immobilised on glutathione beads, CRY2-PHR incubated at 4°C for 1 hr; SDS-PAGE, Coomassie stain; details: both partners purified

B1: murine PER2 (amino acids 1095–1215) (domain or fragment, mouse, UniProt O54943 1095-1215, looked up)
chain: SSDTSHTSKYFGSIDSSENNHKAKMIPDTEESEQFIKYVLQDPIWLLMANTDDSIMMTYQLPSRDLQAVLKEDQEKLKLLQRSQPRFTEGQRRELREVHPWVHTGGLPTAIDVTGCVYCES
notes: also called PER2-CBD
binding result [1]: binds

B2: GST-tagged mPER2 WT (amino acids 1095–1215) (domain or fragment, mouse, UniProt O54943 1095-1215, looked up)
chain: SSDTSHTSKYFGSIDSSENNHKAKMIPDTEESEQFIKYVLQDPIWLLMANTDDSIMMTYQLPSRDLQAVLKEDQEKLKLLQRSQPRFTEGQRRELREVHPWVHTGGLPTAIDVTGCVYCES
notes: also called WT PER2-CBD; GST-PER2; source: E. coli, purified
binding result [2]: binds
